Data published in US8518399B2, “Methods of treating infections originating from viruses in the herpesviridae family” (Tamir Biotechnology, Inc., priority 2010, dated 2013).

Tests used:
human cytomegalovirus = assay: Antiviral activity against human cytomegalovirus, CPE-inhibition assay in primary HFF cells with real time PCR readout; assay type: cell-based; details: primary human foreskin fibroblast (HFF) cells; SI greater than 1 = active; FIGS. 1 and 2
Protocol: (§1) To evaluate the activity of the three tested RNases against human herpesviridae infections, the following quantitative PCR assay was used:
(§2) Solutions of the tested RNases were prepared in cell culture medium without use of dimethyl sulfoxide (“DMSO”). DMSO is unnecessary because the tested RNases are water-soluble.
Antiviral activity against herpes simplex virus-1, herpes simplex virus-2, and human cytomegalovirus was evaluated by cytopathic effect inhibition (“CPE-inhibition”) assays in primary human foreskin fibroblast (HFF) cells. Primary HFF cells were counted and 2.5×10^4 cells per well were seeded into 96-well plates in 100 it of minimal essential medium supplemented with 10% fetal bovine serum (“FBS”). The cells were then incubated for 24 hours at 37° C. in a 5% CO2 humidified incubator. Solutions of the tested RNases were added to triplicate wells to yield a final concentration of 10 μM, and diluted to yield concentrations of 2, 0.4, 0.08, 0.016, and 0.0032 μM. The plates were then incubated for 1 h and 100 μl of a virus suspension was added. […] Total DNA from the cultures was harvested and viral genome copy number was determined by real time PCR assays.
(§3) For all the assays, cytotoxicity was evaluated in the same cell line used to evaluate antiviral activity and was assessed by CellTiter-Glo assays.

roseolovirus-6A = assay: Antiviral activity against roseolovirus-6A in HSB-2 cells, viral DNA by real time PCR; assay type: cell-based, human; details: SI greater than 1 = active, FIGS. 1 and 2
Protocol: as §1, §2
Antiviral activity against roseolovirus-6B was evaluated in Molt-3 cells. The tested RNases were diluted using methods used for the CPE-inhibition assay in RPMI 1640 medium (Roswell Park Memorial Institute) supplemented with 10% FBS, L-glutamine, penicillin and gentamicin. 2×10^4 Molt-3 cells were added to each well, and infected cells were added to achieve the desired multiplicity of infection and incubated at 37° C. for 4 days. The accumulation of viral DNA was determined by real time PCR assays. Antiviral activity against roseolovirus-6A was evaluated by similar procedures, but using HSB-2 cells.
as §3

B1: ranpirnase (protein, UniProt P22069 1-104, looked up)
Protein P-30: QDWLTFQKKHITNTRDVDCDNIMSTNLFHCKDKNTFIYSRPEPVKAICKGIIASKNVLTTSEFYLSDCNVTSRPCKYKLKKSTNKFCVTCENQAPVHFVGVGSC
notes: An RNase, disclosed and claimed in U.S. Pat. No. 5,559,212
- activity against human cytomegalovirus (judged by SI = CC50/EC50) (human cytomegalovirus): extraordinarily active
- activity against roseolovirus-6A (judged by SI = CC50/EC50) (roseolovirus-6A): entirely inactive
